In paper PMC8476643 (Nature Communications, 2021):

B1: 6D6 monoclonal antibody (antibody, V domains shown)
VH: EVQLQQSGAELVKPGASVKLSCTTSGFNIIDTYMHWVKQRPEEGLEWIGGIDPVNGNSEYDPKFQDKATITADTSSNTAYLHLSRLTSEDTAVYYCASAHYYGSSSSFPYWGQGTLVTVSA
VL: DIVMTQSQKFMSTSVGDRVSVTCKASQNVGTHVAWYQQKPGQSPKALIYSASYRYSGVPDRFTGSGVGTDFTLTITNVQSEDLAEYFCQQYNSYFTFGSGTKLEIK
notes: also called mAb 6D6; source: mouse hybridoma, ascites, purified (protein A agarose); copies: 2 + 2
B2: 7D6 monoclonal antibody (antibody, V domains shown)
VH: EVQLQQSGAELVRPGASVKLSCTASGFNIKDTYIHWVKQRPEQGLEWIGRIDPGDGDTEYDPSFQGKATITADTSSNTAYLELSSLTSEDTAVYYCTRFYDYVDYGMDYWGQGTSVTVSS
VL: DIQMTQSPASLSASVGETVTITCRASGNIHNYLAWYQQKQGKSPQLLVYNAKTLADGVPSRFSGSGSGTQYSLKINSLQPEDFGSYYCQHFWSTPPWTFGGGTKLEVK
notes: also called mAb 7D6; source: mouse hybridoma, ascites, purified (protein A agarose); copies: 2 + 2

Key:
[1] = target: T1, SARS-CoV two-proline stabilized S trimer (S-2P) (SARS-CoV (GenBank NC_004718.3), UniProt P59594, stabilised); test: SPR; conditions: both partners purified
T1 construct: also called SARS-CoV S-2P

[2] = target: T1, SARS-CoV two-proline stabilized S …; test: SPR; conditions: both partners purified; remark: listed apart in the source

Binder | Kd [1] | koff [1] | kon [1] | Kd [2]
B1 | 2.14 nM | 5.56e-05 s⁻¹ | 30600 M⁻¹ s⁻¹ | –
B2 | 5.04 nM | 0.000241 s⁻¹ | 47800 M⁻¹ s⁻¹ | 5.88 nM
